Consider 19 molecules from US20140179900A1.

The target of assay [1] is monoclonal antibody 12G6H5 (“Frida”). Briefly: inhibition ELISA FIG. 18a, low peptide, 2.5 ng Frida, coat p4073. In general terms: An ELISA detects its analyte on a solid surface through an enzyme-linked reagent.
The target is the same in assay [2]. Briefly: inhibition ELISA FIG. 18c, low peptide, 2.5 ng Frida, coat p4073.
Assay [3] shares this target. Briefly: inhibition ELISA FIG. 18a, high peptide, 2.5 ng Frida, coat p4073.
Assay [4] shares this target. Briefly: inhibition ELISA FIG. 18c, high peptide, 2.5 ng Frida, coat p4073.
Assay [5] shares this target. Briefly: inhibition ELISA FIG. 10a, 2 µg peptide, 2.5 ng Frida, coat p4073.
For assay [6] the target is unchanged. The experiment in a line: inhibition ELISA FIG. 10b, 2 µg peptide, 2.5 ng Frida, coat p4073.
For assay [7] the target is unchanged. The experiment in a line: inhibition ELISA FIG. 10a, 20 µg peptide, 2.5 ng Frida, coat p4073.
Assay [8] has the same target. Briefly: inhibition ELISA FIG. 10b, 20 µg peptide, 2.5 ng Frida, coat p4073.

For FGFPEHLLVDFLQSLSC [p1208 …-C], the ELISA signal with competitor in assay [1] is 0.712; in assay [2], 0.942; in assay [3], 0.093; in assay [4], 0.101.
Regarding CFKPAHVFIDWLQSLS [p4478 C-…], the ELISA signal with competitor in assay [1] turned out to be 2.23; in assay [3], 1.21.
As to CFGFPAHVFIDWLQSLN [p4474 C-…], the figures for the ELISA signal with competitor in assay [1] and in assay [3] were 1.45 and 0.179, respectively.
As to CFGFPEHLLVDFLQSLS [p4073 C-…, original CETP epitope], the ELISA signal with competitor came out at 0.537 in assay [1]; 0.554 in assay [2]; 0.44 in assay [5]; 0.64 in assay [6]; 0.094 in assay [3]; 0.088 in assay [4]. Also, the ELISA signal with competitor was 0.1 in assay [7] and 0.15 in assay [8].
As to CFGFPSHLIIEWLQSLS [p4433 C-…], the ELISA signal with competitor worked out at 1.11 in assay [2] and 0.672 in assay [4].
As for CFGFPAHVFIDWLQSLS [p4361 C-…], the ELISA signal with competitor in assay [5] stood at 0.82; in assay [7], 0.16.
Regarding CFGFPAHFSIDWLQSLS [p4475 C-…], the results for the ELISA signal with competitor in assay [1] and in assay [3] were 2.21 and 1.43, respectively.
Consider CDFGFPAHVFIDWLQSLS [p4480 C-…], for which the ELISA signal with competitor in assay [1] was determined as 0.521; in assay [3], 0.103.
On to CGFKPAHVFIDWLQSLS [p4479 C-…], for which the ELISA signal with competitor is 2.17 in assay [1] and 1.59 in assay [3].
On the same counts, the results for CFGFPEHVFIDWLQSLS [p4477 C-…] are 0.808 and 0.116.
The corresponding values for CFGFPQHLFTDWLQSLS [p4481 C-…] are 0.551 and 0.156.
In the case of CFGFPAHVYIDWLQSLS [p4362 C-…], the figures for the ELISA signal with competitor in assay [5] and in assay [7] were 0.75 and 0.15, respectively.
Turning to CFGFPSHLIIDWLQSLS [p4325 C-…], the figures for the ELISA signal with competitor in assay [6] and in assay [8] were 0.42 and 0.1, respectively.
On to CFGFPSHIIIDWLQSLS [p4432 C-…], for which the ELISA signal with competitor in assay [2] is 0.635; in assay [4], 0.096.
Take CAAFAAHLLADFLQAAA [p4436 C-…]: the ELISA signal with competitor is 1.63 in assay [2] and 1.69 in assay [4].
On to CFGFPAHVSFDWLQSLS [p4476 C-…], for which the ELISA signal with competitor in assay [1] is 2; in assay [3], 1.42.
Take CAAFPAHLLADAAQALA [p4434 C-…]: the ELISA signal with competitor in assay [2] was 1.74; in assay [4] it was 1.46.
For the molecule CAAAPAHLLVDAAQAAA [p4437 C-…], the values for the ELISA signal with competitor in assay [2] and in assay [4] were 1.84 and 1.67, respectively.
On the same counts, the results for CAAFPAHAAADFLQALA [p4435 C-…] are 1.28 and 1.97.
